Assay results taken from patent US20060240002A1, “Methods of inhibiting angiogenesis-dependent conditions mediated by cryptic epitopes of extracellular matrix components” (priority 2005, published 2006).
Each block holds one substance with its values, some of them ahead of it.

Assays:
[1] = molecular target: denatured collagen type-IV; test: cell-based or functional assay
[2] = molecular target: αvβ3 integrin (human) (UniProt P06756); test: cell-based or functional assay
[3] = tested on: B16F10 tumor cells; test: Differential cDNA array analysis of B16F10 tumor cells treated with peptides (Example X); format: cell-based, murine; conditions: 12 hours, Example X written in present tense
Experimental: To evaluate the effect of inhibiting the HUIV26 cryptic collagen epitope using the SLK- and CLK-Peptides, an Affymetrix™-based differential cDNA array analysis is performed using B16F10 tumor cells treated or not treated with SLK- or CLK-peptide. Non-tissue culture treated dishes are coated overnight with 100 μg/ml of denatured collagen IV in PBS. The next morning the plates are washed and incubated in blocking solution (1% BSA in PBS) for approximately 30 minutes. Tumor cells (7×10^6) are resuspended in serum free media and added to each plate in the presence or absence of CLK-Peptide, SLK-Peptide or a control peptide. The cells are allowed to incubate for a total of 12 hours.
Following the 12-hour incubation period, the cells are harvested and the RNA is isolated using both a TRIzol reagent and the Qiagen Rneasy Mini Protocol for RNA Cleanup. After RNA extraction, the amount and quality of RNA is quantified utilizing a spectrophotomer. 5-8 μg of total RNA is utilized to synthesize double-stranded cDNA. The first cDNA strand is obtained using a reaction mixture containing a T7-(dT)24 Primer, 1× First Strand Buffer, 0.1M DTT and 10 mM dNTP mix in addition to the extracted RNA. The tubes are incubated at 42° C. for approximately 1.5 hours. […]

[4] = tested on: P27^KIP1; test: Western blot of P27^KIP1 in B16F10 melanoma cells on denatured collagen; format: cell-based, murine; conditions: 24 hours
Experimental: (§1) To examine the effect of CLK-peptide on the expression of cyclin-dependent […] P27^KIP1, B16F10 melanoma and GL261 glioblastoma cells were resuspended in adhesion buffer in the presence or absence of CLK-peptide or control peptide. Cells were added to culture plates coated with denatured collagen and allowed to incubate for 24 hours. Total cell lysates were prepared and the proteins analyzed by Western Blot analysis.

[5] = tested on: P27^KIP1; test: Western blot of P27^KIP1 in GL261 glioblastoma cells on denatured collagen; format: cell-based; conditions: 24 hours
Experimental: as §1

[6] = tested on: B16F10 tumor cells; test: Western blot of B16F10 cells treated with peptides (Example X); format: cell-based, murine; conditions: B16F10 cells on denatured collagen type-IV; vs no treatment or control peptide; Example X written in present tense
Experimental: Western blot analyses indicate a corresponding increase in protein levels. Western blotting was performed as previously described, by coating non-tissue culture treated plates with denatured collagen type-IV (10.0 μg/ml). Equal numbers of tumor cells (B16F10) from sub-confluent cultures are harvested, washed and added to the coated plates in the presence or absence of SLK-peptide, CLK-peptide, or control peptide, and allowed to incubate in 1.0% serum-containing medium. Cells are harvested, washed, and lysed in 1.0% Triton X-100 buffer containing 300 mM NaCl, 50 mM Tris (pH 7.0) and 1× protease inhibitor cocktail. Equal amounts (25 μg/lane) of tumor cell lysates are separated by SDS Page and transferred to nitrocellulose membranes. Membranes are probed by incubation with either polyclonal antibodies directed to P21^CIP1 or Actin (Santa Cruz) as described previously (Brooks et al., Cell 1998, 92: 391-400; Petitclerc et al., Cancer Res. 1999, 59: 2724-2730). Western blots are visualized by a chemiluminesence detection system (Amersham Life Sciences).

[7] = tested on: B16F10 tumor cells; test: Real time quantitative RT-PCR of B16F10 cells treated with peptides (Example X); format: cell-based, murine; conditions: vs control peptide, Example X written in present tense
Experimental: Relative expression levels of genes are assessed by both real time quantitative RT-PCR and Western Blot analysis. Tumor cells (B16F10) are allowed to interact with denatured collagen type-IV in the presence or absence of the SLK-peptide, CLK-peptide, or control peptide. Whole cell lysates are prepared from the various cell samples.
Real Time quantitative RT-PCR is carried out essentially as described with some modifications (Livak et al., Method 2001, 25:402-408). Total RNA is isolated using RNeasy miniprep columns (Qiagen, Valencia Calif.) according to the manufacturer's instructions. Total RNA (1 μg) is reverse transcribed using 1× Reverse Transcriptase Buffer, MgCl2 (3 mM), dNTP (2.0 mM), RNAse inhibitor (0.2 U/μl), random hexamer primers (0.5 mM), and MMLV reverse transcriptase (0.3 U/μl) in 20 μl reactions using a 3-step cycle (Promega, Madison, Wis.). Real-time fluorescence detection is carried out using an ABI Prism 7900 Sequence Detection System. Reactions are carried out in microAmp 96 well reaction plates. Primers and probes are designed using Primer 3 version 2 and ENSEMBL software (Promega).

[8] = tested on: P21^CIP1; test: Western blot of P21^CIP1 in M21 cells; format: cell-based, human; conditions: 12 hours, 1% serum-containing medium
Experimental: The effect of CLK-peptide on the expression of P21^CIP1 was examined by Western Blot analysis. M21 cells were resuspended in adhesion buffer in the presence or absence of CLK-peptide and allowed to incubate for 12 hours in 1% serum-containing medium. Total cell lysates were prepared and the levels of P21^CIP1 and actin analyzed by Western Blot analysis.

Chain of UniProt P06756 (P06756 31-1048, chain 1 of 2): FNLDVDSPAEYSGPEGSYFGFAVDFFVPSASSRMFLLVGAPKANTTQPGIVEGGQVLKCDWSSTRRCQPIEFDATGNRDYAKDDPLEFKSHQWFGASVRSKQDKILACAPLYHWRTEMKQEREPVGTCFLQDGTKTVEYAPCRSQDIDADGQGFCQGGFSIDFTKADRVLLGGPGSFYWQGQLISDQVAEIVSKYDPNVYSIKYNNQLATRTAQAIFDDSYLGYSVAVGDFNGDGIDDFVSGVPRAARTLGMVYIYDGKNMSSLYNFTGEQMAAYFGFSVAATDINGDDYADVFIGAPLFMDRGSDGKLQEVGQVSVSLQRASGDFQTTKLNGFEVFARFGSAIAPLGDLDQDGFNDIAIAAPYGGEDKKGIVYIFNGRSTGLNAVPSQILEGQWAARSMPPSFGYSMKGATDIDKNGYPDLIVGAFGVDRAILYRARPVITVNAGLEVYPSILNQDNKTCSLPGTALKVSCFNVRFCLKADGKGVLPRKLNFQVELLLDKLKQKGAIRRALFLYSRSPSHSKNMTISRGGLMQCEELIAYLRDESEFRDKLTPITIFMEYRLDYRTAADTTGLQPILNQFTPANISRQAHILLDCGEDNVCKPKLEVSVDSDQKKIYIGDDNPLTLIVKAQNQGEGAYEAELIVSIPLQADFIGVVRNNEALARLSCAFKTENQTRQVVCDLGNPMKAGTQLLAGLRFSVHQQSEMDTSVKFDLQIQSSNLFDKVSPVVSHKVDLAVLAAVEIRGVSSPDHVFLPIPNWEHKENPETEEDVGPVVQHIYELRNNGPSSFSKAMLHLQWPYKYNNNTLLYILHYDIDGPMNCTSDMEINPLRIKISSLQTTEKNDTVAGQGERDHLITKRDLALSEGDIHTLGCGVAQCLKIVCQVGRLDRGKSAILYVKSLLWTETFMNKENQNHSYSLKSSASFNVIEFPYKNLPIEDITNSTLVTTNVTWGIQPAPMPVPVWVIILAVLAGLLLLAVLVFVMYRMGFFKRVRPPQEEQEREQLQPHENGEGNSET
Chain of UniProt P06756 (P05106 27-788, chain 2 of 2, further chain): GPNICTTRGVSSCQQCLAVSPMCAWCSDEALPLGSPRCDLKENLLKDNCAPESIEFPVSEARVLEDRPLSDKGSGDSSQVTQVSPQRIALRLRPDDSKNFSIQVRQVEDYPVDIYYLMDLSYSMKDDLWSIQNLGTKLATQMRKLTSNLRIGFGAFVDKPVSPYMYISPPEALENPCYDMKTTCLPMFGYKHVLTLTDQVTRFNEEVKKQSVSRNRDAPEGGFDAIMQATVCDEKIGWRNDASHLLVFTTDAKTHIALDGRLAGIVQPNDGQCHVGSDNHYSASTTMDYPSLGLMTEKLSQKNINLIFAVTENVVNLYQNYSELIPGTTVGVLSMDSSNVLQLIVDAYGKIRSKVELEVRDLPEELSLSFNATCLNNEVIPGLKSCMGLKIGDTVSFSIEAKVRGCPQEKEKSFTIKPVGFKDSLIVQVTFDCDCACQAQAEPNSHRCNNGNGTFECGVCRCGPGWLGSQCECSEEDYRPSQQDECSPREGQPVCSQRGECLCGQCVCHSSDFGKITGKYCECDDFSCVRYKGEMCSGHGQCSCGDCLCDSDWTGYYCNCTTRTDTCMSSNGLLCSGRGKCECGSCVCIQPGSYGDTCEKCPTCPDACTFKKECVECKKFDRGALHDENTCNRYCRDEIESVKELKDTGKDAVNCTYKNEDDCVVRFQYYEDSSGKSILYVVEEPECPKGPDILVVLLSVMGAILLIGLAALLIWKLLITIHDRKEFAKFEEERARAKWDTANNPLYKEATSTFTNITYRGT

relative level of P21^CIP1 mRNA in HUVECs (real time RT-PCR) [1]: 10 fold
relative level of P27^KIP1 mRNA in HUVECs (real time RT-PCR) [1]: > 5 fold
Substance: Mab HUI77 (antibody)

relative level of TSP-1 in M21 cells on denatured collagen type-IV (real-time PCR) [2]: 8 fold
Substance: Mab LM609 (antibody)

Further lines, the substance ahead of its results:

Substance: NH2—C-L-K-Q-N-G-G-N—F—S-L-G-COOH (H-CLKQNGGNFSLG-OH) [CLK-peptide]
expression of certain genes (cDNA array) [3]: significant increase
expression of P27^KIP1 (Western blot) [4]: significant upregulation
expression of P27^KIP1 (Western blot) [5]: significant upregulation
expression of certain proteins (Western blot) [6]: significant increase in expression of certain proteins and a significant decrease in expression of other proteins
relative levels of certain RNAs (RT-PCR) [7]: significant increase in the relative levels of certain RNAs and significant decrease in other RNAs
expression of P21^CIP1 (Western blot) [8]: significant upregulation

Substance: NH2—S-L-K-Q-N-G-G-N—F—S-L-C—COOH (H-SLKQNGGNFSLC-OH) [SLK-peptide]
expression of certain genes (cDNA array) [3]: significant increase
expression of certain proteins (Western blot) [6]: significant increase in expression of certain proteins and a significant decrease in expression of other proteins
relative levels of certain RNAs (RT-PCR) [7]: significant increase in the relative levels of certain RNAs and significant decrease in other RNAs

Substance: Mab HUIV26 (antibody)
TSP-1 mRNA levels in HUVECs (real-time PCR) [1]: 6 fold
adhesion of B16F10 cells to denatured collagen type-IV [1]: 50 % inhibition
expression of P21^CIP1 protein in B16F10 cells (Western blot) [1]: 2 fold
migration of B16F10 tumor cells on denatured collagen type-IV [1]: 50 % inhibition
relative level of P21^CIP1 mRNA in B16F10 cells (real time RT-PCR) [1]: 2.3 fold
relative levels of IGFBP-4 RNA in M21 cells (RT-PCR) [1]: 115 fold
relative levels of IGFBP-4 mRNA in HUVECs (RT-PCR) [1]: > 10 fold
relative levels of Id-1 in M21 cells (real-time PCR) (fold decrease) [1]: 2
relative levels of TSP-1 RNA in M21 cells (real-time PCR) [1]: 7 fold
